Results taken from patent US20100150950A1, “HUMAN ANTIBODIES THAT BIND CD70 AND USES THEREOF” (Medarex, Inc., priority 2006, published 2010).

T1: CD70 on Raji cells (Homo sapiens, UniProt P32970)
T1 construct: endogenous in cells; host or cells: Daudi (ATCC CCL-213), HuT 78 (TIB-161), Raji (CCL-86), Granta 519 (DSMZ 342)
T1 sequence (P32970 1-193): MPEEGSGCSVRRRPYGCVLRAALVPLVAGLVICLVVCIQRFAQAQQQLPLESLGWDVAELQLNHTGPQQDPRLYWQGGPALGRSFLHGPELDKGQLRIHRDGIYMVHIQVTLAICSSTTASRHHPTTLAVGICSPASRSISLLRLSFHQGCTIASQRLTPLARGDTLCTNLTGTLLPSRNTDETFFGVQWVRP


Tests used:
[1] = biological target: T1, CD70 on Raji cells; test: Competition FACS assay with FITC-conjugated 69A7 on Raji cells; format: binding; settings: naked antibody 10 μg/ml, then FITC-conjugated 69A7 10 μg/ml
Protocol: A competition FACS assay was carried out to elucidate the binding specificity of 69A7 against 2H5. Raji cells were incubated with either naked 69A7, 2H5, an isotype control antibody or no antibody at a concentration of 10 μg/ml. After wash, the cells were incubated with FITC-conjugated 69A7 at a concentration of 10 μg/ml. The cells were washed and binding was detected with a FITC-labeled anti-human IgG Ab. Flow cytometric analyses were performed using a FACSCalibur flow cytometry (Becton Dickinson, San Jose, Calif.).

[2] = test system: activated T cells; test: ADCC fluorescence cytotoxicity assay, activated T cells; format: cell-based, human
Protocol: In this example, a defucosylated and non-defucosylated anti-CD70 monoclonal antibody was tested for the ability to kill activated T cells in the presence of effector cells via antibody dependent cellular cytotoxicity (ADCC) in a fluorescence cytotoxicity assay.
Human Anti-CD70 monoclonal antibody 2H5 was defucosylated as described above. Human effector cells were prepared as described above. Human spleen T cells were positively selected with anti-CD3 coated magnetic beads (Purity>90%). The cells were stimulated with anti-CD3 and anti-CD28 coated beads and 25 ng/ml IL-2 in Iscove's media+10% heat inactivated FCS for 6 days. Cells were collected and assayed for viability by propidium iodide incorporation (60% viable) and live cells were gated and analyzed for CD70 expression (˜65% CD70+ on live cells) prior to inclusion in ADCC assays.
The activated T cells were tested for antibody specific ADCC to the defucosylated and non-defucosylated human anti-CD70 monoclonal antibody 2H5 using the Delfia fluorescence emission analysis as follows. […] Following a 2100 rpm pulse spin and one hour incubation at 37° C., the supernatants were collected, quick spun again and 20 μl of supernatant was transferred to a flat bottom plate, to which 180 μl of Eu solution (Perkin Elmer, Wellesley, Mass.) was added and read in a Fusion Alpha TRF plate reader (Perkin Elmer). […]

[3] = test system: peptide specific CD8+ T cells; test: CMV peptide specific CD8+ T cell expansion in PBMC; format: cell-based, human
Protocol: Human MHC class I haplotype B*3501+ peripheral blood mononuclear cells (PBMC) pre-screened for cytomegalovirus (CMV) specific T cell responses (Astarte, Inc) were cultured in the presence of 25 ng/ml of B*3501 binding CMV peptide […] (SEQ ID NO:90) (ProImmune, Oxford, UK) and serial dilutions of the HuMAb 2H5 for 11 days. Cultures were analyzed by flow cytometry for CD8+ T cells by PE conjugated anti-CD8 staining (clone RPA-T8, BD Biosciences), for peptide specific CD8+ T cells by APC labeled peptide-MHC Class I pentameric oligomer staining (F114-4B; ProImmunc) and for viability by lack of propidium iodide staining. An isotype control antibody was used as a negative control. […] CD8+ T cell expansion (FIG. 37A). […] Data is representative of one additional experiment performed with the same donor.
Human MHC class I haplotype B*3501+PBMC pre-screened for cytomegalovirus (CMV) specific T cell responses (Astarte, Inc) were cultured in presence of 25 ng/ml of B*3501 binding CMV peptide […] (ProImmune) (SEQ ID NO:90) and 20 μgs/ml of the HuMAb 2H5 in the presence or absence of serial dilutions of an anti-human CD16 (FcRγIII) functional blocking Ab (clone 3G8; BD Biosciences) for 11 days and were then analyzed by flow cytometry for peptide specific CD8+ cell numbers as described above. […] Approximately 1000-fold more 3G8 was required to reverse 2H5 NF mediated inhibition compared to 2H5.

blocking of FITC-labeled 69A7 binding [1]	Molecule	antibody mediated cytotoxicity with addition of anti-CD16 antibody ([2]; activated T cells)	ADCC, % specific lysis of activated T cells ([2]; target to effector ratio 1:50)	peptide specific CD8+ T cell expansion ([3]; 25 ng/ml CMV peptide, 11 days)	total CD8+ cell numbers ([3]; 25 ng/ml CMV peptide, 11 days)	3G8 required to reverse inhibition compared to 2H5 ([3]; antibody 20 μgs/ml)	effect of anti-CD16 Ab 3G8 on inhibition of peptide specific CD8+ T cell expansion ([3]; antibody 20 μgs/ml, serial dilutions of 3G8)
blocked binding	anti-CD70 human monoclonal antibody 69A7 (antibody, V domains shown, Human IgG from hybridoma; also called HuMAb 69A7; FITC-conjugated 69A7) VH: QVQLQESGPGLVKPSETLSLTCTVSGGSVSSDYYYWSWIRQPPGKGLEWLGYIYYSGSTNYNPSLKSRVTISVDTSKNQFSLKLRSVTTADTAVYYCARGDGDYGGNCFDYWGQGTLVTVSS VL: EIVLTQSPATLSLSPGERATLSCRASQSVSSYLAWYQQKPGQAPRLLIFDASNRATGIPARFSGSGSGTDFTLTISSLEPEDFAVYYCQQRSNWPLTFGGGTKVEIK						
	2H5 NF: 2H5 HuMAb lacking fucosyl residues, expressed in CHO cell line Ms704-PF (antibody, V domains shown) VH: QVQLVESGGGVVQPGRSLRLSCAASGFTFSSYIMHWVRQAPGKGLEWVAVISYDGRNKYYADSVKGRFTISRDNSKNTLYLQMNSLRAEDTAVYYCARDTDGYDFDYWGQGTLVTVSS VL: EIVLTQSPATLSLSPGERATLSCRASQSVSSYLAWYQQKPGQAPRLLIYDASNRATGIPARFSGSGSGTDFTLTISSLEPEDFAVYYCQQRTNWPLTFGGGTKVEIK	blocked	increased percentage of specific lysis	completely inhibited	no significant reduction	Approximately 1000 fold	Dose dependent reversal
